According to the supplement of paper PMC9876800:

Test system: peptide library, one residue held at a place counted from the S/T acceptor
Experiment: relative phosphorylation of the sub-library (ratio to the mean residue at this position); higher = residue favoured
Details: human
Procedure, shortened: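 Relative sub-library phosphorylation is a ratio to the mean residue at the same position. Purified recombinant kinases were incubated under kinase-specific conditions with biotinylated degenerate peptide sub-libraries, each fixing one residue at one position around a central Ser/Thr, using 50 μM peptide and 50 μM ATP spiked with γ-32P-ATP for 90 min. Spots captured on streptavidin membranes were phosphorimaged and quantified by densitometry.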

Chain of CAMK2A, construct: Full length (Q9UQM7 whole entry, looked up): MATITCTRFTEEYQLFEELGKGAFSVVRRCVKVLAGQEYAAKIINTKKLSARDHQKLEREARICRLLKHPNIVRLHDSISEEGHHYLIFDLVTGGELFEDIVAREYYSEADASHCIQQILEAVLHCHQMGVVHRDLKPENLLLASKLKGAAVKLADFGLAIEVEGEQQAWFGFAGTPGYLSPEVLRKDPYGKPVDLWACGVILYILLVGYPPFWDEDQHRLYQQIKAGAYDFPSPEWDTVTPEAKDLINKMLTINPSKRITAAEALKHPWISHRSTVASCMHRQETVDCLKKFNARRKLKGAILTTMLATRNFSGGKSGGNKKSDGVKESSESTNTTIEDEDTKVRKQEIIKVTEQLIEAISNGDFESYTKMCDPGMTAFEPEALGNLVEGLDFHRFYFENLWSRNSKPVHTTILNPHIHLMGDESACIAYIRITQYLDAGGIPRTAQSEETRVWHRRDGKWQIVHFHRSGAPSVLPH
Chain of BMPR1B, construct: aa149-end (O00238 149-502, looked up): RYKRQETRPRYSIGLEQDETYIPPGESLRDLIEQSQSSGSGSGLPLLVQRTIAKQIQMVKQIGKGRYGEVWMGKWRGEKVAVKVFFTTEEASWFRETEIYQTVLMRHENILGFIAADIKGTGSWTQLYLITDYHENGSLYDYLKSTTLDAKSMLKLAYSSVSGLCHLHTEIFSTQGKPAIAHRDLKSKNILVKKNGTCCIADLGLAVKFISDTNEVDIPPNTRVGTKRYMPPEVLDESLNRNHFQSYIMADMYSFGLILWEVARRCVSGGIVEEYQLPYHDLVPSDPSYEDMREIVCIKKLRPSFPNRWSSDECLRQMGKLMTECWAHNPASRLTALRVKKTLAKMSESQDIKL

BMPR1B, construct: aa149-end (from UniProt O00238)
relative phosphorylation
Details	at +1	at +2	at +3	at +4	at -1	at -2	at -3	at -4	at -5
A fixed	1.07	1.39	1.01	0.984	0.997	0.924	1.21	1.09	1.34
D fixed	1.83	1.33	1.58	0.977	1.64	2.17	2.03	2.24	1.67
E fixed	5.67	1.49	1.56	1.15	1.77	6.66	2.3	1.75	1.49
F fixed	0.422	0.61	0.873	1	0.771	0.382	0.596	0.674	0.73
G fixed	0.798	1.57	0.953	1.03	0.637	0.725	1.14	1.26	1.2
H fixed	0.552	0.988	0.857	0.895	0.919	0.493	0.923	0.855	0.972
I fixed	0.631	0.606	0.753	0.984	0.833	0.496	0.586	0.704	0.681
K fixed	0.404	1.04	0.655	1.14	0.73	0.386	0.69	0.818	0.938
L fixed	0.503	0.727	0.935	0.888	1.1	0.553	0.663	0.733	0.766
M fixed	0.62	0.757	0.869	0.949	1.29	0.497	0.773	0.86	0.798
N fixed	0.743	0.911	0.961	0.926	0.901	0.679	1.08	0.92	1
P fixed	0.344	1.38	1.13	1.21	0.627	0.499	0.977	0.998	1.09
Q fixed	0.676	0.809	0.945	0.981	0.965	0.702	1.07	1.01	0.839
R fixed	0.48	0.842	0.891	0.924	0.791	0.439	0.803	0.801	0.869
V fixed	1.2	0.664	0.97	0.908	1.02	0.581	0.697	0.769	0.921
W fixed	0.519	0.897	1.01	1.02	0.844	0.397	0.659	0.744	0.892
Y fixed	0.528	0.985	1.04	1.04	1.17	0.415	0.795	0.764	0.799
pThr fixed	6.15	2.16	1.11	1.13	1.03	2.23	2.34	1.67	1.35
pTyr fixed	1.18	0.924	1.3	0.928	1.8	0.801	1.81	1.51	1.41

CAMK2A, construct: Full length (from UniProt Q9UQM7)
relative phosphorylation
Details	at +1	at +2	at +3	at +4	at -1	at -2	at -3	at -4	at -5
A fixed	0.609	0.742	0.885	0.931	0.81	1.37	0.689	1.08	0.921
D fixed	0.816	5.44	2.48	1.96	1.65	0.692	0.352	0.607	0.452
E fixed	1.32	2.31	2.59	1.81	1.16	0.765	0.464	0.985	0.461
F fixed	2.06	0.382	0.664	0.797	0.567	0.62	0.53	0.867	1.36
G fixed	0.59	0.713	1.11	1.11	0.789	1.02	0.591	0.941	0.758
H fixed	0.848	0.976	1.06	1.1	1.05	0.992	0.978	1.08	1.05
I fixed	1.09	0.334	0.431	0.511	0.374	0.31	0.369	0.656	0.866
K fixed	0.719	0.694	0.803	0.792	1.36	1.21	2.13	1.42	0.793
L fixed	1.09	0.331	0.642	0.513	0.629	0.4	0.378	0.733	1.79
M fixed	1.42	0.387	0.515	0.568	0.753	1.07	0.517	0.96	1.06
N fixed	0.955	1.02	1.06	0.977	1.65	1.09	0.706	0.689	0.618
P fixed	0.594	0.73	1.01	1.55	1.88	0.659	1.13	1.43	1.25
Q fixed	1.41	0.696	0.973	1	1.37	2.96	0.902	1.04	0.747
R fixed	0.735	0.781	0.762	0.557	1.02	1.47	5.38	1.4	1.27
V fixed	1.22	0.44	0.614	0.664	0.527	0.389	0.379	0.776	0.867
W fixed	0.527	0.452	0.634	1.15	0.5	1.21	0.837	1.31	1.59
Y fixed	1	0.574	0.774	1.01	0.905	0.765	0.665	1.02	1.15
pThr fixed	1.89	1.82	2.45	4.37	0.489	0.486	0.496	0.738	0.605
pTyr fixed	1.53	4.53	2.49	2.88	1.8	0.503	0.514	0.804	0.813
